One molecule from publication PMC3584105, “Acute BDNF Treatment Upregulates GluR1-SAP97 and GluR2-GRIP1 Interactions: Implications for Sustained AMPA Receptor Expression” (PLoS ONE, 2013) can be followed below.

For the assay, the target named is T1, GluR2 (wild type, full length, expressed in HEKTrkB cells) (UniProt P19491 22-883).
T1 construct: AMPA receptor subunit GluR2, wild type cDNA in a CMV expression vector; the deletion mutants of the same cDNA end at residue 862; also called WT GluR2; full length GluR2; source: HEKTrkB cells, transiently co-transfected (cDNA downstream from the CMV promoter), in lysate
Kind of assay: co-IP; lysate of HEKTrkB cells co-transfected with GluR2 and GRIP1, treated with BDNF (1 h, 50 ng/mL) or not; precipitation with anti-N-terminal GluR2 and blot with anti-GRIP1, or precipitation with anti-GRIP1 and blot with anti-C-terminal GluR2/3. The settings on record: partners not purified.

T1 sequence (P19491 22-883): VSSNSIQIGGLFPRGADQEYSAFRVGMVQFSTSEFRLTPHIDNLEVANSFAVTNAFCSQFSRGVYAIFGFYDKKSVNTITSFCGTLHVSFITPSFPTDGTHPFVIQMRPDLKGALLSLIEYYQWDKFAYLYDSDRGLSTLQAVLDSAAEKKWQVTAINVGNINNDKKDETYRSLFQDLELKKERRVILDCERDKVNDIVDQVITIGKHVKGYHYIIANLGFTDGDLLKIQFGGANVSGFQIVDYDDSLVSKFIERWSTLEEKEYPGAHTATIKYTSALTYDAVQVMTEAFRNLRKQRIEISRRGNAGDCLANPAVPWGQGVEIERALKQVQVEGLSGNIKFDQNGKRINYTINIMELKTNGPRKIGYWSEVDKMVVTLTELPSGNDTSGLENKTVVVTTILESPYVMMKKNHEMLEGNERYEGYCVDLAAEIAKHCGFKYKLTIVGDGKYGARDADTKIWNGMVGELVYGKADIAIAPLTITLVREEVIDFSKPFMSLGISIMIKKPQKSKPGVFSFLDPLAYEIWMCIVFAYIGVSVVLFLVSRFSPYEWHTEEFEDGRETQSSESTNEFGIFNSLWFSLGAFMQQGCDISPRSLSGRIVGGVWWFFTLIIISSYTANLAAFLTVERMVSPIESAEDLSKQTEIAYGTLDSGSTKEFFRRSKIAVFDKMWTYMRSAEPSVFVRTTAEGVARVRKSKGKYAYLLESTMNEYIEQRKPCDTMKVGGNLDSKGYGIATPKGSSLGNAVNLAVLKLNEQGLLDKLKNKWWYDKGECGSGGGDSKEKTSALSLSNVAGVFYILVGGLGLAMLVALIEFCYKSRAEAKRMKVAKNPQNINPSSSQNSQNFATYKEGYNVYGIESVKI

B1: GRIP1 (expressed in HEKTrkB cells) (natural protein, UniProt P97879 1-1112, looked up)
chain: MIAVSFKCRCQILRRLTKDESPYTKSASQTKPPDGALAVRRQSIPEEFKGSTVVELMKKEGTTLGLTVSGGIDKDGKPRVSNLRQGGIAARSDQLDVGDYIKAVNGINLAKFRHDEIISLLKNVGERVVLEVEYELPPVSIQGSSVMFRTVEVTLHKEGNTFGFVIRGGAHDDRNKSRPVVITCVRPGGPADREGTIKPGDRLLSVDGIRLLGTTHAEAMSILKQCGQEATLLIEYDVSVMDSVATASGPLLVEVAKTPGASLGVALTTSVCCNKQVIVIDKIKSASIADRCGALHVGDHILSIDGTSMEYCTLAEATQFLANTTDQVKLEILPHHQTRLALKGPDHVKIQRSDRQLPWDPWASSQCSVHTNHHHNPHHPDHCRVPALGFPKALTPNSPPAMVSSSSPTSMSAYSLSSLNMGTLPRSLYSTSPRGTMMRRRLKKKDFKSSLSLASSTVGLAGQVVHTETTEVVLTADPVTGFGIQLQGSVFATETLSSPPLISYIEADSPAERCGVLQIGDRVMAINGIPTEDSTFEEANQLLRDSSITSKVTLEIEFDVAESVIPSSGTFHVKLPKKHSVELGITISSPSSRKPGDPLVISDIKKGSVAHRTGTLELGDKLLAIDNIRLDSCSMEDAVQILQQCEDLVKLKIRKDEDNSDEQESSGAIIYTVELKRYGGPLGITISGTEEPFDPIIISSLTKGGLAERTGAIHIGDRILAINSSSLKGKPLSEAIHLLQMAGETVTLKIKKQTDAQPASSPKKLPIPSHSSDLGDGEEDPSPIQRPGKLSDVYPSTVPSVDSAVDSWDGSGIDARYGSQGTTFQTSGYNFNTYDWRSPKKRASLSPVPKPRSQTYPDVGLSNEDWDRSTASGFAGASDSADAEQEENFWSQALEDLETCGQSGILRELEATIMSGSTMSLNHEAPTARSQLGRQASFQERSNSRPHYSQTTRSNTLPSDVGRKSVTLRKMKQEIKEIMSPTPVELHKVTLYKDSGMEDFGFSVADGLLEKGVYVKNIRPAGPGDLGGLKPYDRLLQVNHVRTRDFDCCLVVPLIAESGNKLDLVISRNPLASQKSIEQPALPSDWSEQNSAFFQQPSHGGNLETREPTNTL
notes: source: HEKTrkB cells, transiently co-transfected (cDNA downstream from the CMV promoter), in lysate
Take B1: the “fold change of the co-precipitate, 1 h BDNF against untreated cells” value was ~6 fold.
